Results on one substance are retold here after article PMC3571714.

The target in experiment [1] is A1T1-His6 (module 1 multi-domain construct of the nocardicin NRPS) (Nocardia uniformis subsp. tsuyamanensis ATCC 21806). Briefly: pull-down.
Experiment [2] addresses A4T4-His6 (module 4 multi-domain construct of NocB) (Nocardia uniformis subsp. tsuyamanensis ATCC 21806). Briefly: pull-down.

The term stoichiometry N denotes the number of molecules, sites or subunits per partner or assembly. With “MbtH family protein NocI (untagged) (natural protein)”, the stoichiometry N in experiment [1] and in experiment [2] was 1 in each case.
